From publication PMC10294844, “Functional Diversity of Homologous Oxidoreductases—Tuning of Substrate Specificity by a FAD-Stacking Residue for Iron Acquisition and Flavodoxin Reduction” (Antioxidants, 2023) come the findings set out here.

The series deals with the molecule itself. Description: crystal structure.

B1: Bacillus cereus heme-degrading monooxygenase IsdG (enzyme)
chain: MIIVTNTAKITKGNGHKLIERFNKVGKVETMPGFLGLEVLLTQNTVDYDEVTISTRWNAKEDFQGWTKSAAFKDAHSHQGGMPEYILDNKIAYYDVKVVRMPMAAAQ
notes: also called Bc IsdG; IsdGapo
For B1, the binding result was “binds”.
